± gives the standard deviation of the averaged measurements.
Assay: total protein half-life in vivo (active degradation + dilution); higher = more stable protein
[1] = E. coli NCM3722 delta-clpP delta-lon delta-hslV, growth: N-lim chemostat, doubling time 6 h
[2] = E. coli NCM3722 delta-clpP, growth: N-lim chemostat, doubling time 6 h
[3] = E. coli NCM3722 delta-hslV, growth: N-lim chemostat, doubling time 6 h
[4] = E. coli NCM3722 delta-lon, growth: N-lim chemostat, doubling time 6 h
[5] = E. coli NCM3722 delta-smpB, growth: N-lim chemostat, doubling time 6 h
[6] = wild type E. coli NCM3722, growth: C-lim chemostat, doubling time 3 h
[7] = wild type E. coli NCM3722, growth: C-lim chemostat, doubling time 6 h
[8] = wild type E. coli NCM3722, growth: C-lim chemostat, doubling time 12 h
[9] = wild type E. coli NCM3722, growth: N-lim chemostat, doubling time 6 h
[10] = wild type E. coli NCM3722, growth: N-lim chemostat, doubling time 12 h
[11] = wild type E. coli NCM3722, growth: P-lim chemostat, doubling time 6 h
[12] = wild type E. coli NCM3722, growth: P-lim chemostat, doubling time 12 h

MAEFETTFADLGLKAPILEALNDLGYEKPSPIQAECIPHLLNGRDVLGMAQTGSGKTAAFSLPLLQNLDPELKAPQILVLAPTRELAVQVAEAMTDFSKHMRGVNVVALYGGQRYDVQLRALRQGPQIVVGTPGRLLDHLKRGTLDLSKLSGLVLDEADEMLRMGFIEDVETIMAQIPEGHQTALFSATMPEAIRRITRRFMKEPQEVRIQSSVTTRPDISQSYWTVWGMRKNEALVRFLEAEDFDAAIIFVRTKNATLEVAEALERNGYNSAALNGDMNQALREQTLERLKDGRLDILIATDVAARGLDVERISLVVNYDIPMDSESYVHRIGRTGRAGRAGRALLFVENRERRLLRNIERTMKLTIPEVELPNAELLGKRRLEKFAAKVQQQLESSDLDQYRALLSKIQPTAEGEELDLETLAAALLKMAQGERTLIVPPDAPMRPKREFRDRDDRGPRDRNDRGPRGDREDRPRRERRDVGDMQLYRIEVGRDDGVEVRHIVGAIANEGDISSRYIGNIKLFASHSTIELPKGMPGEVLQHFTRTRILNKPMNMQLLGDAQPHTGGERRGGGRGFGGERREGGRNFSGERREGGRGDGRRFSGERREGRAPRRDDSTGRRRFGGDA [P0A9P6]
total protein half-life in vivo [1]: 5.66 ± 0.077 h | total protein half-life in vivo [2]: 0.972 ± 0.029 h | total protein half-life in vivo [3]: 0.567 ± 0.1 h | total protein half-life in vivo [4]: 4.78 ± 0.32 h | total protein half-life in vivo [5]: 0.849 ± 0.089 h | total protein half-life in vivo [6]: 1.4 ± 0.34 h | total protein half-life in vivo [7]: 1.34 ± 0.29 h | total protein half-life in vivo [8]: 1.19 ± 0.17 h | total protein half-life in vivo [9]: 2.26 ± 2 h | total protein half-life in vivo [10]: 0.902 ± 0.095 h | total protein half-life in vivo [11]: 0.635 ± 0.37 h | total protein half-life in vivo [12]: 0.864 ± 0.3 h

MAEIGIFVGTMYGNSLLVAEEAEAILTAQGHKATVFEDPELSDWLPYQDKYVLVVTSTTGQGDLPDSIVPLFQGIKDSLGFQPNLRYGVIALGDSSYVNFCNGGKQFDALLQEQSAQRVGEMLLIDASENPEPETESNPWVEQWGTLLS
total protein half-life in vivo [1]: 6.12 ± 0.9 h | total protein half-life in vivo [2]: 6.03 ± 1.5 h | total protein half-life in vivo [3]: 5.34 ± 0.23 h | total protein half-life in vivo [4]: 6 ± 0.2 h | total protein half-life in vivo [5]: 5.34 ± 0.1 h | total protein half-life in vivo [6]: 3.57 ± 0.5 h | total protein half-life in vivo [7]: 5.8 ± 0.3 h | total protein half-life in vivo [8]: 13.42 ± 0.023 h | total protein half-life in vivo [9]: 5.7 ± 0.42 h | total protein half-life in vivo [10]: 9.75 ± 0.96 h | total protein half-life in vivo [11]: 6.03 ± 0.35 h

MAELSDQEMLRYNRQIILRGFDFDGQEALKDSRVLIVGLGGLGCAASQYLASAGVGNLTLLDFDTVSLSNLQRQTLHSDATVGQPKVESARDALTRINPHIAITPVNALLDDAELAALIAEHDLVLDCTDNVAVRNQLNAGCFAAKVPLVSGAAIRMEGQITVFTYQDGEPCYRCLSRLFGENALTCVEAGVMAPLIGVIGSLQAMEAIKMLAGYGKPASGKIVMYDAMTCQFREMKLMRNPGCEVCGQ
total protein half-life in vivo [1]: 5.3 ± 1.4 h | total protein half-life in vivo [2]: 4.37 ± 0.4 h | total protein half-life in vivo [3]: 4.1 ± 0.1 h | total protein half-life in vivo [4]: 6.67 ± 1.7 h | total protein half-life in vivo [5]: 4.36 ± 0.4 h | total protein half-life in vivo [6]: 3.03 ± 0.46 h | total protein half-life in vivo [7]: 6.09 ± 0.5 h | total protein half-life in vivo [8]: 11.3 ± 0.97 h | total protein half-life in vivo [9]: 4.66 ± 0.53 h | total protein half-life in vivo [10]: 9.95 h | total protein half-life in vivo [11]: 5.7448 ± 0.0056 h | total protein half-life in vivo [12]: 13.2 ± 1.6 h

MAEMKNLKIEVVRYNPEVDTAPHSAFYEVPYDATTSLLDALGYIKDNLAPDLSYRWSCRMAICGSCGMMVNNVPKLACKTFLRDYTDGMKVEALANFPIERDLVVDMTHFIESLEAIKPYIIGNSRTADQGTNIQTPAQMAKYHQFSGCINCGLCYAACPQFGLNPEFIGPAAITLAHRYNEDSRDHGKKERMAQLNSQNGVWSCTFVGYCSEVCPKHVDPAAAIQQGKVESSKDFLIATLKPR [P0AC47]
total protein half-life in vivo [2]: 5.78 ± 0.38 h | total protein half-life in vivo [3]: 6.96 ± 1 h | total protein half-life in vivo [4]: 5.92 ± 0.62 h | total protein half-life in vivo [5]: 5.82 ± 0.086 h | total protein half-life in vivo [6]: 3.07 ± 0.19 h | total protein half-life in vivo [7]: 5.76 ± 0.11 h | total protein half-life in vivo [8]: 11 ± 2.1 h | total protein half-life in vivo [9]: 6.1 ± 0.5 h | total protein half-life in vivo [10]: 12.2 ± 1.8 h | total protein half-life in vivo [11]: 5.48 ± 0.44 h | total protein half-life in vivo [12]: 13.1 ± 1.2 h

MAESTVTADSKLTSSDTRRRIWAIVGASSGNLVEWFDFYVYSFCSLYFAHIFFPSGNTTTQLLQTAGVFAAGFLMRPIGGWLFGRIADKHGRKKSMLLSVCMMCFGSLVIACLPGYETIGTWAPALLLLARLFQGLSVGGEYGTSATYMSEVAVEGRKGFYASFQYVTLIGGQLLALLVVVVLQHTMEDAALREWGWRIPFALGAVLAVVALWLRRQLDETSQQETRALKEAGSLKGLWRNRRAFIMVLGFTAAGSLCFYTFTTYMQKYLVNTAGMHANVASGIMTAALFVFMLIQPLIGALSDKIGRRTSMLCFGSLAAIFTVPILSALQNVSSPYAAFGLVMCALLIVSFYTSISGILKAEMFPAQVRALGVGLSYAVANAIFGGSAEYVALSLKSIGMETAFFWYVTLMAVVAFLVSLMLHRKGKGMRL [P0AEX3]
total protein half-life in vivo [5]: 1.61 ± 0.23 h | total protein half-life in vivo [6]: 2.88 ± 0.36 h | total protein half-life in vivo [7]: 4.51 h | total protein half-life in vivo [8]: 10 ± 2.4 h | total protein half-life in vivo [9]: 2.01 h | total protein half-life in vivo [11]: 4.35 ± 0.23 h | total protein half-life in vivo [12]: 6.27 ± 0.29 h

MAGESFILMGVSGSGKTLIGSKVAALLSAKFIDGDDLHPAKNIDKMSQGIPLSDEDRLPWLERLNDASYSLYKKNETGFIVCSSLKKQYRDILRKGSPHVHFLWLDGDYETILARMQRRAGHFMPVALLKSQFEALERPQADEQDIVRIDINHDIANVTEQCRQAVLAIRQNRICAKEGSASDQRCE
total protein half-life in vivo [1]: 4.25 h | total protein half-life in vivo [6]: 2.82 ± 0.78 h | total protein half-life in vivo [7]: 2.8 ± 0.43 h | total protein half-life in vivo [8]: 3.67 h | total protein half-life in vivo [9]: 1.6 h

MAGHSKWANTRHRKAAQDAKRGKIFTKIIRELVTAAKLGGGDPDANPRLRAAVDKALSNNMTRDTLNRAIARGVGGDDDANMETIIYEGYGPGGTAIMIECLSDNRNRTVAEVRHAFSKCGGNLGTDGSVAYLFSKKGVISFEKGDEDTIMEAALEAGAEDVVTYDDGAIDVYTAWEEMGKVRDALEAAGLKADSAEVSMIPSTKADMDAETAPKLMRLIDMLEDCDDVQEVYHNGEISDEVAATL [P0A8A0]
total protein half-life in vivo [1]: 5.28 ± 0.71 h | total protein half-life in vivo [2]: 4.61 ± 0.6 h | total protein half-life in vivo [3]: 3.03 ± 0.19 h | total protein half-life in vivo [4]: 3.29 ± 0.17 h | total protein half-life in vivo [5]: 2.94 ± 0.12 h | total protein half-life in vivo [6]: 2.524 ± 0.013 h | total protein half-life in vivo [7]: 4.01 ± 0.095 h | total protein half-life in vivo [8]: 7.21 ± 0.53 h | total protein half-life in vivo [9]: 3.15 ± 0.058 h | total protein half-life in vivo [10]: 4.09 ± 0.034 h | total protein half-life in vivo [11]: 3.69 ± 0.66 h | total protein half-life in vivo [12]: 6.79 ± 0.84 h
